Data taken from patent US20040258705A1, “Use of lectins to promote oligomerization of glycoproteins and antigenic molecules” (Antigenics Inc., priority 2003, published 2004).
“Also recorded” adds a separate entry of the source.

How the values were obtained:
gp96 = gp96 (Mus musculus, UniProt P08113); experiment: Analytical SEC of Meth A gp96 with added Con A; format: binding, murine
Description: To verify gp96 was oligomerized with Con A, a common homogenate from Meth A-induced murine fibrosarcoma tissue was prepared and processed using a process that included Con A and DEAE column chromatography. The final purified gp96 preparation was divided in two. To one half of the material, exogenous con A was added to a final concentration of 50 ug/mL; buffer alone was added to the other as a control, both samples incubated at 37° C. for 2 hr and then fractionated by SEC (Superdex 200). Individual fractions were analyzed by SDS-PAGE, and by gp96- and con A-specific ELISA. Analytical data for material […] is shown in the left panel; that to which con A was added to the right. In the left panel the peak of gp96 is in fraction 5 and con A levels as detected by specific ELISA are low. In the right panel (con A added) two peaks of gp96 are evident as shown by SDS-PAGE (inset; peak fractions 3 (arrow) and 5) and gp96 ELISA (fractions 3 and 5) as well as a distinct peak of Con A centered on fraction 3.
Con A was added (50 ug/mL final) to an aliquot of this gp96 sample (conc. 500 ug/ml), the sample incubated at RT and hourly samples were taken (T=1 through T=5) and analyzed by SEC. A sample comprising con A alone was also run. […] Each sample was then re-analyzed by SEC. […]

[1] = Sigma lectin list; cited from earlier work
Meth A cells = experiment: In vivo Meth A tumor inhibition (tumor protection / rejection) assay; set-up: species or system BALB/c mice; settings: for tumor rejection activity, Con A added in process or to final product: in process 30 and 300 μg/ml, following purification 30 μg/ml
Description: (§1) In vivo Meth A growth inhibition assay: BALB/c mice (n=30/group) were immunized on day 0 and day 7 with 10 or 50 μg of gp96 intradermally in the flank. On study day 14, mice were challenged with 1×10^5 Meth A cells intradermally in a total volume of 100 μl. Growing tumors were monitored during the subsequent four weeks. All animals were euthanized on study day 41 after a final tumor measurement. Data was reported as percentage of animals that are tumor-free on study day 41. Control groups included un-immunized (diluent—negative control) and immunized with irradiated Meth A cells (positive control).
as §1, with “(n=10/group)” for “(n=30/group)”, “10” for “10 or 50”, “gl.” for “μl.”
as §1, with “(n=10/group)” for “(n=30/group)”, “10” for “10 or 50”
as §1, with “mice (n=10/group)” for “mice (n=30/group)”, “with 0.3” for “with 10”, “or 3” for “or 50”, “gp96 alone or in combination with Con A” for “gp96”

CO[C@H]1O[C@H](CO)[C@@H](O)[C@H](O)[C@@H]1O [α-MM, Methyl α-D-Mannopyranoside, reference compound]
effect on high molecular weight gp96-Con A complex in SEC (gp96; equal volume of PBS containing 10% α-MM added to 5 hr gp96 + Con A sample): dissociated the high molecular weight complex

PHA-L: Phaseolus Vulgaris lectin, Sigma product
Specificity Sugar [1]: oligosaccharide

PHA-E: Phaseolus Vulgaris lectin, Sigma product
Specificity Sugar [1]: oligosaccharide

Concanavalin A [Con A]
elution position of gp96 in SEC (gp96; Con A 50 ug/mL added to Meth A gp96, Superdex 200 or superose 6): mediated a shift in the elution position of the gp96 dimer peak
Specificity Sugar [1]: α-man, α-glc

B1: HSPPC-96 + Con A (in process): Meth A derived gp96 with Con A added during the purification process, before the DEAE column (protein, UniProt P08113 22-802, looked up)
Endoplasmin: DDEVDVDGTVEEDLGKSREGSRTDDEVVQREEEAIQLDGLNASQIRELREKSEKFAFQAEVNRMMKLIINSLYKNKEIFLRELISNASDALDKIRLISLTDENALAGNEELTVKIKCDKEKNLLHVTDTGVGMTREELVKNLGTIAKSGTSEFLNKMTEAQEDGQSTSELIGQFGVGFYSAFLVADKVIVTSKHNNDTQHIWESDSNEFSVIADPRGNTLGRGTTITLVLKEEASDYLELDTIKNLVRKYSQFINFPIYVWSSKTETVEEPLEEDEAAKEEKEESDDEAAVEEEEEEKKPKTKKVEKTVWDWELMNDIKPIWQRPSKEVEEDEYKAFYKSFSKESDDPMAYIHFTAEGEVTFKSILFVPTSAPRGLFDEYGSKKSDYIKLYVRRVFITDDFHDMMPKYLNFVKGVVDSDDLPLNVSRETLQQHKLLKVIRKKLVRKTLDMIKKIADEKYNDTFWKEFGTNIKLGVIEDHSNRTRLAKLLRFQSSHHSTDITSLDQYVERMKEKQDKIYFMAGSSRKEAESSPFVERLLKKGYEVIYLTEPVDEYCIQALPEFDGKRFQNVAKEGVKFDESEKTKESREATEKEFEPLLNWMKDKALKDKIEKAVVSQRLTESPCALVASQYGWSGNMERIMKAQAYQTGKDISTNYYASQKKTFEINPRHPLIRDMLRRIKEDEDDKTVMDLAVVLFETATLRSGYLLPDTKAYGDRIERMLRLSLNIDPEAQVEEEPEEEPEDTSEDAEDSEQDEGEEMDAGTEEEEEETEKESTEKDEL
modifications: tumor-derived; Con A added
notes: Meth A derived gp96 with Con A added during the purification process, before the DEAE column
tumor rejection activity, Con A added in process at graded levels (Meth A cells; Con A 3, 10, 30, 100, 300 ug/ml added before DEAE, 10 μg gp96, tumor-free on day 41): titratable increase in the tumor rejection activity
tumor rejection activity, Con A added in process or to final product (Meth A cells; 10 μg gp96): increase in the tumor rejection activity; also recorded: increases the tumor rejection activity

B2: HSPPC-96 + Con A (final product): Meth A derived gp96 purified by standard procedure with Con A (30 ug/mL) added following purification (protein, UniProt P08113 22-802, looked up)
Endoplasmin: DDEVDVDGTVEEDLGKSREGSRTDDEVVQREEEAIQLDGLNASQIRELREKSEKFAFQAEVNRMMKLIINSLYKNKEIFLRELISNASDALDKIRLISLTDENALAGNEELTVKIKCDKEKNLLHVTDTGVGMTREELVKNLGTIAKSGTSEFLNKMTEAQEDGQSTSELIGQFGVGFYSAFLVADKVIVTSKHNNDTQHIWESDSNEFSVIADPRGNTLGRGTTITLVLKEEASDYLELDTIKNLVRKYSQFINFPIYVWSSKTETVEEPLEEDEAAKEEKEESDDEAAVEEEEEEKKPKTKKVEKTVWDWELMNDIKPIWQRPSKEVEEDEYKAFYKSFSKESDDPMAYIHFTAEGEVTFKSILFVPTSAPRGLFDEYGSKKSDYIKLYVRRVFITDDFHDMMPKYLNFVKGVVDSDDLPLNVSRETLQQHKLLKVIRKKLVRKTLDMIKKIADEKYNDTFWKEFGTNIKLGVIEDHSNRTRLAKLLRFQSSHHSTDITSLDQYVERMKEKQDKIYFMAGSSRKEAESSPFVERLLKKGYEVIYLTEPVDEYCIQALPEFDGKRFQNVAKEGVKFDESEKTKESREATEKEFEPLLNWMKDKALKDKIEKAVVSQRLTESPCALVASQYGWSGNMERIMKAQAYQTGKDISTNYYASQKKTFEINPRHPLIRDMLRRIKEDEDDKTVMDLAVVLFETATLRSGYLLPDTKAYGDRIERMLRLSLNIDPEAQVEEEPEEEPEDTSEDAEDSEQDEGEEMDAGTEEEEEETEKESTEKDEL
modifications: tumor-derived; Con A added
tumor rejection activity, Con A added in process or to final product (Meth A cells; 10 μg gp96): increase in the tumor rejection activity; also recorded: increases the tumor rejection activity

B3: scFv-purified Meth A gp96 + Con A: Meth A derived gp96 from anti-gp96 scFv immunoaffinity column, Con A added (protein, UniProt P08113 22-802, looked up)
Endoplasmin: DDEVDVDGTVEEDLGKSREGSRTDDEVVQREEEAIQLDGLNASQIRELREKSEKFAFQAEVNRMMKLIINSLYKNKEIFLRELISNASDALDKIRLISLTDENALAGNEELTVKIKCDKEKNLLHVTDTGVGMTREELVKNLGTIAKSGTSEFLNKMTEAQEDGQSTSELIGQFGVGFYSAFLVADKVIVTSKHNNDTQHIWESDSNEFSVIADPRGNTLGRGTTITLVLKEEASDYLELDTIKNLVRKYSQFINFPIYVWSSKTETVEEPLEEDEAAKEEKEESDDEAAVEEEEEEKKPKTKKVEKTVWDWELMNDIKPIWQRPSKEVEEDEYKAFYKSFSKESDDPMAYIHFTAEGEVTFKSILFVPTSAPRGLFDEYGSKKSDYIKLYVRRVFITDDFHDMMPKYLNFVKGVVDSDDLPLNVSRETLQQHKLLKVIRKKLVRKTLDMIKKIADEKYNDTFWKEFGTNIKLGVIEDHSNRTRLAKLLRFQSSHHSTDITSLDQYVERMKEKQDKIYFMAGSSRKEAESSPFVERLLKKGYEVIYLTEPVDEYCIQALPEFDGKRFQNVAKEGVKFDESEKTKESREATEKEFEPLLNWMKDKALKDKIEKAVVSQRLTESPCALVASQYGWSGNMERIMKAQAYQTGKDISTNYYASQKKTFEINPRHPLIRDMLRRIKEDEDDKTVMDLAVVLFETATLRSGYLLPDTKAYGDRIERMLRLSLNIDPEAQVEEEPEEEPEDTSEDAEDSEQDEGEEMDAGTEEEEEETEKESTEKDEL
modifications: tumor-derived; Con A added
tumor rejection activity, immunoaffinity (scFv) purified gp96 with Con A (Meth A cells; 0.3 or 3 μg gp96 alone or in combination with Con A): increases the tumor rejection activity

B4: Pseudomonas aeruginosa (PA-I): lectin, Sigma product (protein, UniProt Q05097 2-122, looked up)
PA-I galactophilic lectin: AWKGEVLANNEAGQVTSIIYNPGDVITIVAAGWASYGPTQKWGPQGDREHPDQGLICHDAFCGALVMKIGNSGTIPVNTGLFRWVAPNNVQGAITLIYNDVPGTYGNNSGSFSVNIGKDQS
Specificity Sugar [1]: gal
